This passage reports % Inhibition of Specific Binding results from patent publication US12427210B2, “Compounds comprising a fibroblast activation protein ligand and use thereof” (priority 2019, dated 2025).

Holding throughout (test): radioligand displacement, compound at 10 µM
Common to all, as to details: remark: other sources report otherwise
For orientation: Loss of bound radioactivity is the signal in a displacement assay; it reports binding, not function.

One assay has as its target T1, A2A (h) (human), P29274.
T1 chain: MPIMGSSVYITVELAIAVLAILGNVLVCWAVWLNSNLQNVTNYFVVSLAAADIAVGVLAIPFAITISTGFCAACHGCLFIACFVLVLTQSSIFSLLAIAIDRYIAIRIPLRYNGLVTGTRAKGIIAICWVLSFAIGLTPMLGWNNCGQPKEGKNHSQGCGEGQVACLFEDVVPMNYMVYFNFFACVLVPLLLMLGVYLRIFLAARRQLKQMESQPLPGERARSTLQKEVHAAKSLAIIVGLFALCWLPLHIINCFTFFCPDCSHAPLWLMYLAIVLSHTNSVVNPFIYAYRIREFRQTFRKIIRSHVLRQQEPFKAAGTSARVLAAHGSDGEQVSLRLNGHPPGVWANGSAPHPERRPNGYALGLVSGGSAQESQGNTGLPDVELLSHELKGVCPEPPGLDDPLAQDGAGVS

The target in assay [1] is 5-HT2A (h) (human), P28223.
Sequence of 5-HT2A (h) (human), P28223 (P28223 whole entry): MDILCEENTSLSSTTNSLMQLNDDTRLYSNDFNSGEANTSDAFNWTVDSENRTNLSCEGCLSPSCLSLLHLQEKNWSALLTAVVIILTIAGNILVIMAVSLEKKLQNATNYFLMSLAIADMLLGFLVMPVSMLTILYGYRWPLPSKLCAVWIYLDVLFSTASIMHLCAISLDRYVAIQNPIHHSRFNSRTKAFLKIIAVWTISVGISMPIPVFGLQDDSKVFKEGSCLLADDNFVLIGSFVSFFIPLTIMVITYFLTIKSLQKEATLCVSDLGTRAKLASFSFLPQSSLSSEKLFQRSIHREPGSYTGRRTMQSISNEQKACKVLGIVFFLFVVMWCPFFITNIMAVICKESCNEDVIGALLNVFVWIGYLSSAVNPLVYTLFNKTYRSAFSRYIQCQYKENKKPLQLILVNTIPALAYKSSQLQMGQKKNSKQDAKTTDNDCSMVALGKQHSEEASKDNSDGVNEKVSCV
The target in assay [2] is 5-HT transporter (h) (human), P31645.
Assay [3] has as its target T2, delta (DOP) (h) (human), P41143.
T2 chain: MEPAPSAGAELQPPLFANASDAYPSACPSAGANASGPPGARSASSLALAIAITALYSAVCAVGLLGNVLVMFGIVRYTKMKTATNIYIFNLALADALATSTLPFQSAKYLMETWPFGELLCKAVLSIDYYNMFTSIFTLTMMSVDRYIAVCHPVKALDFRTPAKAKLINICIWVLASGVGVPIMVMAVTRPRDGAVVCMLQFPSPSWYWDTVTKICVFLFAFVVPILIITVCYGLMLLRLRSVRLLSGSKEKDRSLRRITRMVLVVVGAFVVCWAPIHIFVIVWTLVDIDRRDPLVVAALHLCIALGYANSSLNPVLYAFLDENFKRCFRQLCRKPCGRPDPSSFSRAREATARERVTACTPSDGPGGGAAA

The next assay addresses T3, CB1 (h) (human), P21554.
T3 chain: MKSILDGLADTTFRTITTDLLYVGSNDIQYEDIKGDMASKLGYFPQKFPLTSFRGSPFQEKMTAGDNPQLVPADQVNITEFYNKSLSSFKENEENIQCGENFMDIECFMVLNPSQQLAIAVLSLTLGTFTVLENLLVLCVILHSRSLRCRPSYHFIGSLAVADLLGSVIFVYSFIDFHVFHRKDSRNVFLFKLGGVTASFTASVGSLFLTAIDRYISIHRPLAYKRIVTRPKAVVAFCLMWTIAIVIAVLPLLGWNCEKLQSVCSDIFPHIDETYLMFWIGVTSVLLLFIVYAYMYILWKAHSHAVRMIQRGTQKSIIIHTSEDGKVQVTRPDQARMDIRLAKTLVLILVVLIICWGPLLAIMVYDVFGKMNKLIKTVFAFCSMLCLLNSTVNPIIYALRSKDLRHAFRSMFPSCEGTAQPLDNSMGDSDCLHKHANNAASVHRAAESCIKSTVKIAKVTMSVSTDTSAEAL

For assay [4], the target named is beta 1 (h) (human), P08588.
For assay [5], the target named is 5-HT1B (h) (human), P28222.
A further assay has as its target M3 (h) (human), P20309.
For a further assay, the target named is CB2 (h) (human), P34972.
Sequence of CB2 (h) (human), P34972 (P34972 whole entry): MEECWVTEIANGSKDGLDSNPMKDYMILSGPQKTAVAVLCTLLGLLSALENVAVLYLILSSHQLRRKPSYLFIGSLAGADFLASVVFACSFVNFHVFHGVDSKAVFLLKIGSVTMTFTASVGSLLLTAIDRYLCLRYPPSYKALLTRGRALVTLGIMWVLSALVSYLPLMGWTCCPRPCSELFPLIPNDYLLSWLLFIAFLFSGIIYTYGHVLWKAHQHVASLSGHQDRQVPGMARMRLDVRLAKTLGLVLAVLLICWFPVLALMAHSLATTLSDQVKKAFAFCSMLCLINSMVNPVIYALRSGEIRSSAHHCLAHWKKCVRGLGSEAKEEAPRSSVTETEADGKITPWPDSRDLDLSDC
Assay [6] deals with beta 2 (h) (human), P07550.
The target in assay [7] is T4, 5-HT3 (h) (human), P46098.
T4 chain: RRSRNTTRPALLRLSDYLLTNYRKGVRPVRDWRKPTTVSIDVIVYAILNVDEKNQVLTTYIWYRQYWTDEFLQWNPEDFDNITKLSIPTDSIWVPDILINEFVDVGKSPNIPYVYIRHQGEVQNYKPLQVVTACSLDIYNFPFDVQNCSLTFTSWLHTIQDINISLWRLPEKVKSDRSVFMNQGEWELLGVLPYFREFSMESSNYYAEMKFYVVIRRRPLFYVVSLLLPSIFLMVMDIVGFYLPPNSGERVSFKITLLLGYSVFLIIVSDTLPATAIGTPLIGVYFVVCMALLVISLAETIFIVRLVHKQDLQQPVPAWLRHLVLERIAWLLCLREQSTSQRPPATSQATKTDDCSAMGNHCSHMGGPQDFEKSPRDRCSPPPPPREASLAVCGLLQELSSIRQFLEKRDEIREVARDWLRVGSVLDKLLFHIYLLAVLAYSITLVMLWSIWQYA

Assay [8] deals with T5, 5-HT1A (h) (human), P08908.
T5 chain: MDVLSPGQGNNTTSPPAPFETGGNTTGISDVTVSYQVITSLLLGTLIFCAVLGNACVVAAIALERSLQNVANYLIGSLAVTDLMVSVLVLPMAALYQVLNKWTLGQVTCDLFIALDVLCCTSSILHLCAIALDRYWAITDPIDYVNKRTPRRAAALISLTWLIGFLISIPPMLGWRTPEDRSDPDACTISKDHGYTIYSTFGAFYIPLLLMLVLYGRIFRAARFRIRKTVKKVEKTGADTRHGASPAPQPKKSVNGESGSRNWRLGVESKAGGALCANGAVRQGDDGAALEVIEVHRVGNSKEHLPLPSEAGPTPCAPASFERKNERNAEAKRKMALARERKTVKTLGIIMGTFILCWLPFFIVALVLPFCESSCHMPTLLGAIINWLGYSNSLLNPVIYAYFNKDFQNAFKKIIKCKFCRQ

Assay [9] deals with mu (MOP) (h) (human), P35372.
Sequence of mu (MOP) (h) (human), P35372 (P35372 whole entry): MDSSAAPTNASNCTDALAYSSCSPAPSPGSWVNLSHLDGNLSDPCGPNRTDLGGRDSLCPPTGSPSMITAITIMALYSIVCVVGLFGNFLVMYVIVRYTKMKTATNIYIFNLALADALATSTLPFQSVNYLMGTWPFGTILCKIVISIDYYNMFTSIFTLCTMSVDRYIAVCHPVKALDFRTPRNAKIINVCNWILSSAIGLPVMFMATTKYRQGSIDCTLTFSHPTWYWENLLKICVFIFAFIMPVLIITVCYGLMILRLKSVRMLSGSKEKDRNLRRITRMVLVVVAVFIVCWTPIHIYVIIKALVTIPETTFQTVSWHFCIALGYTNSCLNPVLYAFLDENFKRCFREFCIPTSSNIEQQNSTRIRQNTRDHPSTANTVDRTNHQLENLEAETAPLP
For assay [10], the target named is kappa (h) (KOP) (human), P41145.
Sequence of kappa (h) (KOP) (human), P41145 (P41145 whole entry): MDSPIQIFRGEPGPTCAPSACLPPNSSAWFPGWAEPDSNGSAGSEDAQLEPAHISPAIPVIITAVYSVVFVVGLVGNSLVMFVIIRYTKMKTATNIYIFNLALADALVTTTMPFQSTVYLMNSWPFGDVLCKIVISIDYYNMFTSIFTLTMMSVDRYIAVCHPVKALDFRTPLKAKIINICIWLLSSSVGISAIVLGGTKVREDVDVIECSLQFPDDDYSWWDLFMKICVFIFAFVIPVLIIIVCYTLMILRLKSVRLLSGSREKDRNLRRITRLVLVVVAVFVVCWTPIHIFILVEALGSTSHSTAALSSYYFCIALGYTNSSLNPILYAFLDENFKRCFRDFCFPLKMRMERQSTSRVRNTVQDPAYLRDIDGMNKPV

B1: Hex-[Cys(tMeBn(DOTA-PP))-Pro-Pro-Thr-Gln-Phe-Cys]-Asp-NH2 (3BP-3407) (peptide)
peptide: CPPTQFCD
modifications: here or on the partner: N-terminal hexanoyl (Hex); Cys1 and Cys7 cyclised through tMeBn carrying DOTA-PP; C-terminal amide
In the case of B1, the % Inhibition of Specific Binding was -4% with A2A (h) (human), P29274; -2% in assay [1]; -3% in assay [2]; 0% in [3]; 5% with CB1 (h) (human), P21554; 4% in assay [4]. Besides, the % Inhibition of Specific Binding in assay [5] is -11%; with M3 (h) (human), P20309, 10%; with CB2 (h) (human), P34972, 2%; in [6], 4%; in assay [7] it was 2%; in assay [8], -3%. For the same molecule, the figures for the % Inhibition of Specific Binding in assay [9] and in assay [10] were 2% and 7%, respectively.

B2: Hex-[Cys(tMeBn(DOTA-AET))-Pro-Pro-Thr-Gln-Phe-Cys]-OH (3BP-3554) (peptide)
peptide: CPPTQFC
modifications: here or on the partner: N-terminal hexanoyl (Hex); Cys1 and Cys7 cyclised through tMeBn carrying DOTA-AET; free C-terminal acid (-OH)
For B2, the % Inhibition of Specific Binding with A2A (h) (human), P29274 is -16%; in [1], 4%; in assay [2], -8%; in [3], 1%; in the assay with CB1 (h) (human), P21554 it was -7%; in [4] it was -13%. The % Inhibition of Specific Binding in assay [5] is 8%; with M3 (h) (human), P20309, 1%; with CB2 (h) (human), P34972 it was -5%; in [6] it was 8%; in assay [7], 4%; in assay [8], -5%. In addition, the % Inhibition of Specific Binding is -10% in [9] and 10% in assay [10].
